For assay [1], the target named is T1, HuCD86-HuIgG1 (fusion protein of the extracellular part of human CD86 and human Fc gamma 1, R&D Systems Cat … (human, UniProt P42081 24-247)).
T1 construct: extracellular domain; bought; also called CD86-IgG1; CD86-Ig; not shown: human Fc gamma 1
T1 sequence (looked up): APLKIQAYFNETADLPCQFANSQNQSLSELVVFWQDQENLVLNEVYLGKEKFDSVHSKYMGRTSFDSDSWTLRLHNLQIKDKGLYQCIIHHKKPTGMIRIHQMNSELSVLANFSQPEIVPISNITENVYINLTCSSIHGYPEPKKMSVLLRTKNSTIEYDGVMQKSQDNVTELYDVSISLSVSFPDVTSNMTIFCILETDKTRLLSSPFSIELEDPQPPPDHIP
The experiment in a line: SPR, Biacore 3000, antigen amine-coupled. The protocol: (§1) Affinity constants (Kd) of individual purified Nanobody clones were determined by surface plasmon resonance on a Biacore 3000 instrument. […] Remaining reactive groups were inactivated using ethanolamine. Nanobody binding was assessed at 1 and 0.1 microM. Each sample was injected for 4 min at a flow rate of 45 μl/min to allow for binding to chip-bound antigen. Next, binding buffer without Nanobody was sent over the chip at the same flow rate to allow for dissociation of bound Nanobody. After 2 min, remaining bound analyte was removed by injecting regeneration solution (50 mM NaOH or Glycine/HCl pH 1.5). Binding curves obtained at different concentrations of Nanobody were used to calculate Kd values.
For orientation: SPR reads the build-up and loss of mass on a sensor chip optically.

The target of assay [2] is T2, HuCD80-HuIgG1 (fusion protein of the extracellular part of human CD80 and human Fc gamma 1, R&D Systems Cat … (human, UniProt P33681 35-242)).
T2 construct: extracellular domain; bought, produced in NS0 cells; also called CD80-IgG1; CD80-Ig; not shown: human Fc gamma 1
T2 sequence (looked up): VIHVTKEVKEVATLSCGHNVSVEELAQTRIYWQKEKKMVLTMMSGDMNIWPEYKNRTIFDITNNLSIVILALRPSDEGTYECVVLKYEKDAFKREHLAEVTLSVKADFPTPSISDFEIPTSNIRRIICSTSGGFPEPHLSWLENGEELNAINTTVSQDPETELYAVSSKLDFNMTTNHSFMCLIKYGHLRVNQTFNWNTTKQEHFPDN
The experiment in a line: SPR, Biacore 3000, antigen amine-coupled. The protocol: as §1

For assay [3], the target named is T1, HuCD86-HuIgG1 (fusion protein of the …). The experiment in a line: ELISA, periplasmic extract on coated antigen, anti-myc detection. The source says:
(§2) To this end, 3 independent ELISA assays were set up. In these ELISAs, either HuCD80 or HuCD86 fusion proteins or human IgG1 were coated on ELISA plates which were washed and then blocked using Marvel skimmed milk powder (Premier Brands UK Ltd., Wirral, Merseyside, UK). […] Four aliquots of periplasmic extract of individual clones prepared as described in Example 4 were allowed to bind in all four types of ELISA plates. Binding of Nanobody to immobilized antigen was detected using mouse anti-c-myc tag monoclonal antibody as a secundary, followed by a goat-anti-mouse (human and bovine serum protein pre-absorbed) HRP conjugate for detection (for detailed protocol, see the prior art and prior applications filed by applicant).
(ELISA stands for enzyme-linked immunosorbent assay.)

The target of assay [4] is T2, HuCD80-HuIgG1 (fusion protein of the …). Described as above.
Text: as §2

The target in assay [5] is T3, Human IgG1, purified from a human plasma (Sigma-Aldrich Cat #I-5154) (human).
T3 construct: also called HuIgG1
Described as above.
Text: as §2

In assay [6] the target is T4, rhPDL2-Fc (fusion protein of the extracellular part of human PD-L2 and mouse Fc gamma 1, R&D Systems Cat … (human; mouse, UniProt Q9BQ51 20-220; P01868 98-324 = IgG part, limits assumed).
T4 construct: extracellular domain;domain: Fc; bought; also called PD-L2 ectodomain
The experiment in a line: competition ELISA, coated PD-L2; blocked ligand PD-1-biotin. The protocol: In short, 2 μg/ml PD-L2 ectodomain (R&D Systems, Minneapolis, US, Cat #1224-PL) was immobilized on maxisorp microtiter plates (Nunc, Wiesbaden, Germany) and free binding sites were blocked using 4% Marvel in PBS. Next, 0.5 μg/ml of PD-1 was preincubated with a dilution series of purified Nanobody.

Assay [7] concerns the target T5, rhPD1-Fc (fusion protein of the extracellular part of human PD-1 and mouse Fc gamma 1, R&D Systems Cat … (human; mouse, UniProt Q15116 25-170; P01868 98-324 = IgG part, limits assumed).
T5 construct: extracellular domain;domain: Fc; bought; also called PD-1 ectodomain
The experiment in a line: competition ELISA, coated PD-1; blocked ligand PD-L2-biotin. The protocol:
(§3) In short, 2 μg/ml PD-1 ectodomain (R&D Systems Cat #1086-PD, Minneapolis, US) was immobilized on maxisorp microtiter plates (Nunc, Wiesbaden, Germany) and free binding sites were blocked using 4% Marvel in PBS.

In assay [8] the target is T5, rhPD1-Fc (fusion protein of the …). The experiment in a line: competition ELISA, coated PD-1; blocked ligand B7-H1-biotin. The protocol: as §3
Assay [9] has as its target T6, rhB7-H2-Fc (fusion protein of the extracellular part of human B7-H2 (ICOSL) and mouse Fc gamma 1, R&D Systems … (human; mouse, UniProt O75144 19-256; P01868 98-324 = IgG part, limits assumed).
T6 construct: extracellular domain;domain: Fc; bought; also called B7-H2 ectodomain
The experiment in a line: competition ELISA, coated B7-H2; blocked ligand ICOS-biotin.

In assay [10] the target is T7, HuCD28-HuIgG1 (fusion protein of the extracellular part of human CD28 and human Fc gamma 1, R&D Systems Cat … (human, UniProt P10747 19-152; P01857 100-330 = IgG part).
T7 construct: extracellular domain;domain: Fc; bought; also called CD28-Ig; hCD28-Fc
The experiment in a line: competition ELISA, CD28-hFc in solution; blocked ligand coated B7-1-muFc.

The target of assay [11] is T8, human CD28 on Jurkat cells (human, UniProt P10747 19-220).
T8 construct: whole, on cells; also called native form of the CD28 antigen; cell expressed CD28
The experiment in a line: FACS competition, Jurkat cells; blocked ligand CD80-Fc. The text has this:
The potency of cell-expressed CD28 binding Nanobodies to inhibit the interaction of CD28 with either CD80 or CD86 was also ranked using FACS based screening method. […] Dead cells were stained by including TOPRO3 vital dye in the final resuspension buffer. All samples were read on a BD FACSarray instrument. Dead cells were excluded from the analysis by gating out TOPRO3 vital dye positive scoring cells.

Consider 14 molecules from patent US20240182575A1 (Ablynx, published 2024).

As a reminder, the Kd is the equilibrium constant for the complex coming apart. Lower therefore signals higher affinity. What is called koff is a measure of how fast the partners let go of each other. Read a low koff as slow dissociation. For orientation: kon means a measure of how fast the partners come together.

B1: CD8086PMP1B2 (VHH)
VHH: EVQLVESGGGLVQAGGSLRLSCAASGRSFSSYVMGWFRQAPGKEREFVAAIIGRDIGTYYADSVKGRFTISRDNAKTTVYLQMNALKPEDTAVYYCAADSRSRLSGIRSAYDYWGQGTVTVSS
notes: not shown: C-terminal c-myc tag and His6 tag
For the molecule B1, in [1], the binding result is “no binding (tested: 1 and 0.1 microM)”. In [2], this molecule returned a Kd of 0.13 nM, a koff of 5.9e-05 s⁻¹ and a kon of 440000 M⁻¹ s⁻¹. Further, in assay [3], the OD was 0.038 OD. This molecule also came in with an OD in [4] of 1.99 OD. The OD in assay [5] was 0.046 OD.

B2: 103F6 (VHH)
VHH: EVQLVESGGGLVQPGGSLRLSCAASGFTFSTYTMIWLRRAPGKGFEWVSTIDKDGNTNYVDSVKGRFAVSRDNTKNTLYLQMNSLKPEDTAMYYCTKHGSSARGQGTRVTVSS
notes: Nanobody against PD-L2
With B2, in assay [6], the “IC50 (read off the curve)” value is about 7 nM.

B3: 102C3 (VHH)
VHH: EVQLVESGGGLVQAGKSLRLSCAASGSIFSIHAMGWFRQAPGKEREFVAAITWSGGITYYEDSVKGRFTISRDNAKNTVYLQMNSLKPEDTAIYYCAADRAESSWYDYWGQGTQVTVSS
notes: Nanobody against PD-1
Take B3: the “IC50 (read off the curve)” value in assay [7] and in [8] was about 10 nM each time.

B4: 102C12 (VHH)
VHH: EVQLVESGGGLVQAGGSLRLSCAASGSIASIHAMGWFRQAPGKEREFVAVITWSGGITYYADSVKGRFTISRDNAKNTVYLQMNSLKPEDTAIYYCAGDKHQSSWYDYWGQGTQVTVSS
notes: Nanobody against PD-1
Turning to B4, the “IC50 (read off the curve)” value in assay [7] was about 70 nM; in assay [8], about 80 nM.

B5: 102E2 (VHH)
VHH: EVQLVESGGGLVQAGGSLRLSCAASGSISSIHAMGWFRQAPGKEREFVAAITWSGGITYYADSLKGRFTISRDNAKNTGYLQMNSLKPEDTAIYYCAADRAQSSWYDYWGQGTQVTVSS
notes: Nanobody against PD-1
Consider B5, for which the “IC50 (read off the curve)” value in assay [7] and in assay [8] was about 70 nM each time.

B6: 102E8 (VHH)
VHH: EVQLVESGGGLVQAGGSLGLSCAASGSIFSINAMAWFRQAPGKEREFVALISWSGGSTYYEDSVKGRFTISRDNAKNTVYLQMNSLKPEDTAIYYCAADRVDSNWYDYWGQGTQVTVSS
notes: Nanobody against PD-1
As for B6, the “IC50 (read off the curve)” value in assay [7] and in [8] was about 200 nM each time.

B7: 95B11 (VHH)
VHH: EVQLVESGGGLVQPGGSLRLSCAASRSISSFNLLGWYRQAPGKQRELVAHLLSGGSTVYPDSVKGRFTVSRDNTKNTVYLQMNSLKPEDTAVYYCNAIAPALGSSWGQGTQVTVSS
notes: Nanobody against B7-H2 (ICOSL)
For B7, in assay [9], the “IC50 (read off the curve)” value is about 10 nM.

B8: 95H8 (VHH)
VHH: EVQLVESGGGLVQTGGSLRLSCAASSSTSTSSIDVMGWYRQSPGKQRELVASISSFGSTYYADSVKGRFIISRDNAKNTVNLQMNNLKLEDTAVHFCNLRRLSPPPLLDYWGQGTQVTVSS
notes: as for B7
With B8, in assay [9], the “IC50 (read off the curve)” value is about 10 nM.

B9: 70F10 (VHH)
VHH: EVQLVESGGGLVQAGGSLRLSCAASGFTFDDYAIGWFRQAPGKEREGVACVSNSDGSTYYANSVKGRFTISSDNAKNTVYLQMNSLKPEDTAVYYCAADSRCWGWGMLHMRHGDRGQGTQVTVSS
notes: Nanobody against CD28
Consider B9, for which, in assay [10], the “IC50 (read off the curve)” value was about 200 nM.

B10: 103E2 (VHH)
VHH: EVQLVESGGGLVQAGGSLRLSCAASGSTFSNYVSNYAMGWGRQAPGTQRELVASISNGDTTNYADSVKGRFTISRDNAKNTVYLQMNSLKPEDTAVYYCFEHQVAGLTWGQGTQVTVSS
notes: Nanobody against PD-L2
On to B10, for which, in assay [6], the “IC50 (read off the curve)” value was about 10 nM.

B11: 70F9 (VHH)
VHH: EVQLVESGGGLVQAGGSLRLSCAASGRTFSSYVMGWFRQAPGKEREFVAAHSWYADYADSVKGRFSISRDNDKNTVYLQMNSLKPEDTAVYYCAASRSQGRRYANSYESWGQGTQVTVSS
notes: Nanobody against CD28
B11: the “IC50 (read off the curve)” value in assay [10] is about 100 nM.

B12: 65B2 (VHH)
VHH: EVQLVESGGGLVQAGGSLRLSCATSGRTFSSDVMGWFRQAPGKEREFVAAINRSGHSTSYTGSVKGRFAISRDNTKNTVYLQMNSLKPEDTAVYYCALRLWSDYLAQKSGEYNYWGQGTQVTVSS
notes: Nanobody against CD28
With B12, the “IC50 (read off the curve)” value in assay [11] was about 200 ng/well; in [10], about 200 nM.

B13: 95F8 (VHH)
VHH: EVQLVESGGGLVQAGGSLRLSCAASGIAFSIDIMDWYRQAPGKERELVATISGGGSTNYADSVKGRFIVSRDNAKNILYLQMNSLKPDDTAVYYCNARRLIYGRTVYWGQGTQVTVSS
notes: as for B7
For the molecule B13, in assay [9], the “IC50 (read off the curve)” value was about 8 nM.

B14: 95A6 (VHH)
VHH: EVQLVESGGGLVQAGGSLRLSCALSGRAVSIAATAMGWYRQAPGKQRELVAARWSGGSIQYLDSVKGRFTISRDNAKNTVYLQMNSLTPEDTAVYYCNTLPWRANYSGQGTQVTVSS
notes: as for B7
Turning to B14, the “IC50 (read off the curve)” value in [9] is about 10 nM.
